Measurements published in publication PMC2911020.
pKd: −log10 of the molar value.

Columns and labels:
[1] = target: PapDG chaperone-adhesin complex (His-tagged PapD, class II PapG), purified and coumarin-labeled (Escherichia coli) (UniProt P15319); assay: other fluorescence titration
[2] = target: PapC usher (Escherichia coli) (UniProt P07110); settings: cited from earlier work

Substance	pKd [1]	pKd [2]
PapC usher, wild type, purified, His-tag cleaved off (pDG2) (from UniProt P07110 25-836) (natural protein)	7.23	–
PapC F21A, purified, His-tag cleaved off (pQY21) (from UniProt P07110 25-836) (natural protein)	7.21	–
PapDG chaperone-subunit complex (from UniProt P15319)	–	7.05
PapC R652A, purified, His-tag cleaved off (pQY652) (natural protein)	5.80	–
